Measured values published in PMC10533412 (2023).
Changes are numbered by the printed parent chain. One block for each binder: values may come before it.

Tests used:
BTN3A1 B30.2 domain = BTN3A1 B30.2 domain (human, UniProt O00481 328-513); experiment: ITC; with HMBPP
BTN3A1 B30.2 = BTN3A1 B30.2 (Homo sapiens, UniProt O00481); experiment: ITC
BTN3A3 B30.2 = BTN3A3 B30.2 (Homo sapiens, UniProt O00478); experiment: ITC
Chain of BTN3A3 B30.2 (O00478 319-521): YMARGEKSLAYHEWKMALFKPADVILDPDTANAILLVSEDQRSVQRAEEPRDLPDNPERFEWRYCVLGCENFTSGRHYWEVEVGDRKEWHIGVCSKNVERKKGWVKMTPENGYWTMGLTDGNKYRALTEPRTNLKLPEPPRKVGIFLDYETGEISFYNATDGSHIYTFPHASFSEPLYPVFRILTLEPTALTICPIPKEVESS

Chain of BTN3A1 B30.2 (O00481 319-513): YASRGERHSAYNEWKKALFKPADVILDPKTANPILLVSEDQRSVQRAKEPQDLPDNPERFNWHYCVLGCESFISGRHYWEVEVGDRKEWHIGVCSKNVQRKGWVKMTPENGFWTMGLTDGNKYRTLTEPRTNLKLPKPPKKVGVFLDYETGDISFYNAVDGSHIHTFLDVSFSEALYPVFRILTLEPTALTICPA
Chain of BTN3A1 B30.2 domain (O00481 other isoform, or with tags, fused parts or gaps): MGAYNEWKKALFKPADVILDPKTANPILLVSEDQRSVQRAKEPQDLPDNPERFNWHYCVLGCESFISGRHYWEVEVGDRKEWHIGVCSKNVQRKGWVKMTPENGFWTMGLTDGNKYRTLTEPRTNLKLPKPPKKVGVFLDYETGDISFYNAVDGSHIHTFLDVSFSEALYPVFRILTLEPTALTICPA

Kd (BTN3A1 B30.2 domain): 600 nM
B1: BTN2A1 B30.2 domain (domain or fragment)
chain: EELRWRRTFLHAVDVVLDPDTAHPDLFLSEDRRSVRRCPFRHLGESVPDNPERFDSQPCVLGRESFASGKHYWEVEVENVIEWTVGVCRDSVERKGEVLLIPQNGFWTLEMHKGQYRAVSSPDRILPLKESLCRVGVFLDYEAGDVSFYNMRDRSHIYTCPRSAFSVPVRPFFRLGCEDSPIFICPALTGANGVTVPEEGLTLHRVGTHQSL
modifications: limits from PDB 5ZXK/8JYE entity without the C-terminal LEHHHHHH; paper number minus 295 = entity position

Kd (BTN3A1 B30.2): 155000 nM
B4: BTN2A1 B30.2 (protein)
chain: ELQVKEKLQEELRWRRTFLHAVDVVLDPDTAHPDLFLSEDRRSVRRCPFRHLGESVPDNPERFDSQPCVLGRESFASGKHYWEVEVENVIEWTVGVCRDSVERKGEVLLIPQNGFWTLEMHKGQYRAVSSPDRILPLKESLCRVGVFLDYEAGDVSFYNMRDRSHIYTCPRSAFSVPVRPFFRLGCEDSPIFICPALTGANGV
modifications: IPP

Kd (BTN3A1 B30.2): 611 nM
B5: BTN2A1 B30.2 (protein)
chain: B4 chain
modifications: HMBPP

Continued, binder first:

B2: BTN2A1 B30.2 (protein)
chain: B4 chain
modifications: DMAPP
Kd (BTN3A1 B30.2): 12300 nM

B3: BTN2A1 B30.2 (protein)
chain: B4 chain with R45H
Kd (BTN3A3 B30.2): 460 nM
